# Measured values taken from the RNAGym collection of RNA variant scans (doi:10.7554/elife.80360).
# B1: CPEB3 Ribozyme (parent)
# chain: GGGGGCCACAGCAGAAGCGUUCACGUCGCGGCCCCUGUCAGAUUCUGGUGAAUCUGCGAAUUCUGCUGU
# Variants of: B1
# Test: self-cleavage, relative activity (ratio to wild type); higher = more cleavage; co-transcriptional
row,Variant,self-cleavage
1,U21C C24G,0.223
2,U21C C24U,0.429
3,U21C U36G,0.286
4,U21C U36C,0.479
5,U21C U36A,0.0993
6,U21C G56A,0.657
7,U21C G56U,0.693
8,U21A U55C,0.874
9,U21A U26C,0.985
10,U21A U26G,0.869
11,U21A U26A,0.796
12,U21C C63G,0.635
13,U21C C63U,0.804
14,U21C C63A,0.47
15,U21C G58U,0.952
16,U21C G58A,0.673
17,U21C G58C,0.826
18,U21A G25A,0.244
19,U21A G25U,0.136
20,U21A G25C,0.249
21,U21A G56U,0.936
22,U21A G56C,0.755
23,U21A G56A,0.954
24,U21C C29G,0.247

row,Variant,self-cleavage
1,U21C C29U,0.217
2,U21A C35A,0.323
3,U21A C35U,0.869
4,U21C G31U,0.395
5,U21A G47C,0.988
6,U21A G47A,0.969
7,U21A G47U,0.992
8,U21C A42U,0.891
9,U21C A42G,0.749
10,U21A U61A,0.907
11,U21A U61G,0.94
12,U21C G68A,1
13,U21A C45U,0.967
14,U21A C45A,1.01
15,U21A C45G,0.956
16,U21C G37C,0.23
17,U21C G65A,0.671
18,U21C G65C,0.393
19,U21C G65U,0.488
20,U21A U67A,0.992
21,U21A U67C,0.951
22,U21A G68C,1.02
23,U21A G68U,0.976
24,U21A C54A,0.872

row,Variant,self-cleavage
1,U21A C54G,0.936
2,U21A C54U,0.673
3,U21A G31U,0.595
4,U21A G31A,0.803
5,U21A C32G,0.504
6,U21C A52C,0.854
7,U21A U44G,0.952
8,U21A U44A,0.901
9,U21A U44C,0.817
10,U21C A51C,0.913
11,U21C A51U,0.861
12,U21C C27U,0.138
13,U21C C27A,0.344
14,U21A C66G,0.835
15,U21A C66A,0.781
16,U21C U26G,0.459
17,U21C U26C,0.805
18,U21A C57A,0.268
19,U21A C57G,0.361
20,U21A C57U,0.447
21,U21A G58A,0.898
22,U21C C45A,0.87
23,U21C C45U,0.88
24,U21A G50C,0.924

row,Variant,self-cleavage
1,U21A G50A,0.989
2,U21C G48U,0.901
3,U21C G48C,0.967
4,U21C C22A,0.24
5,U21A G28C,0.193
6,U21A G28A,0.219
7,U21A U49C,0.972
8,U21A U49A,0.96
9,U21A U49G,0.95
10,U21C G41C,0.538
11,U21C G41A,0.677
12,U21C G41U,0.73
13,U21A U46A,1.03
14,U21A U46G,0.934
15,U21A U46C,0.926
16,U21C C34U,0.898
17,U21C C34A,0.303
18,U21C C34G,0.328
19,U21A G30U,0.343
20,U21A G30C,0.532
21,U21A G41U,0.824
22,U21A G41A,0.855
23,U21A G41C,0.694
24,U21C C66G,0.744

row,Variant,self-cleavage
1,U21C C66U,0.887
2,U21A C34U,0.995
3,U21A C34A,0.708
4,U21A U69G,1.06
5,U21A U69C,1.06
6,U21A U69A,1.01
7,U21C G28C,0.0853
8,U21C G28U,0.105
9,U21A U64A,0.91
10,U21A U64C,0.874
11,U21C C35U,0.716
12,U21C C35G,0.206
13,U21A C33U,1
14,U21A C33A,0.808
15,U21A C33G,0.536
16,U21A G37U,0.356
17,U21A U62G,0.798
18,U21A U62A,0.853
19,U21A U38A,0.276
20,U21A U38G,0.24
21,U21A U38C,0.373
22,U21A C39G,0.981
23,U21A C39U,0.928
24,U21A G48A,1

row,Variant,self-cleavage
1,U21A G48U,0.978
2,U21C G30U,0.268
3,U21C G30A,0.522
4,U21C G30C,0.235
5,U21C A23C,0.608
6,U21C A23U,0.803
7,U21C C32U,0.918
8,U21C C32A,0.741
9,U21C C32G,0.226
10,U21C G25A,0.121
11,U21C G25U,0.13
12,U21C G25C,0.118
13,U21C C33U,0.919
14,U21A U43A,0.906
15,U21A U43G,0.833
16,U21C G47C,0.915
17,U21C G47U,0.978
18,U21C G47A,0.915
19,U21C C54A,0.769
20,U21C C54U,0.883
21,U21C C54G,0.688
22,U21A U36G,0.272
23,U21A U36C,0.693
24,U21A U36A,0.253

row,Variant,self-cleavage
1,U21C C57U,0.379
2,U21C C57A,0.252
3,U21C U38A,0.171
4,U21C A60G,0.663
5,U21C A60U,0.391
6,U21C A59U,0.581
7,U21C A59G,0.928
8,U21C A40G,0.719
9,U21C A40C,0.372
10,U21C A40U,0.642
11,U21A G65C,0.6
12,U21A C63G,0.727
13,U21A C63A,0.795
14,U21A C63U,0.921
15,U21C G50U,0.878
16,U21C G50A,0.949
17,U21C G50C,0.849
18,U21A U53G,0.863
19,U21A U53A,0.936
20,U21A U53C,0.927
21,U21C C39A,0.498
22,U21C C39U,0.842
23,U21C,0.92
